Assay [1] deals with T1, human GPCR135 (human, UniProt Q9NSD7 1-469).
T1 sequence: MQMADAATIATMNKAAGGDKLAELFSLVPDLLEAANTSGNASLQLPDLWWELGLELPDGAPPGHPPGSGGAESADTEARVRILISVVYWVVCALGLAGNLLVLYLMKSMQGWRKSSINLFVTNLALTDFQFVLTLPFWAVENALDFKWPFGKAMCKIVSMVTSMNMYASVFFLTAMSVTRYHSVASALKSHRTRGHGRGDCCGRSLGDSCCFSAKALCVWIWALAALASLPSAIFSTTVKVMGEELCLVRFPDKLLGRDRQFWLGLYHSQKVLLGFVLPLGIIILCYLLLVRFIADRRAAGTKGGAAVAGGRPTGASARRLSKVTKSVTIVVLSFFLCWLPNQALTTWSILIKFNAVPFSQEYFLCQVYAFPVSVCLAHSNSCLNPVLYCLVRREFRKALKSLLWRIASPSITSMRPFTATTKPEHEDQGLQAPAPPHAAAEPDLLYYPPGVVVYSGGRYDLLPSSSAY
Briefly: cell-based or functional assay.

Assay [2] concerns the target T2, human LGR7 (human, UniProt Q9HBX9 1-757).
T2 sequence (looked up): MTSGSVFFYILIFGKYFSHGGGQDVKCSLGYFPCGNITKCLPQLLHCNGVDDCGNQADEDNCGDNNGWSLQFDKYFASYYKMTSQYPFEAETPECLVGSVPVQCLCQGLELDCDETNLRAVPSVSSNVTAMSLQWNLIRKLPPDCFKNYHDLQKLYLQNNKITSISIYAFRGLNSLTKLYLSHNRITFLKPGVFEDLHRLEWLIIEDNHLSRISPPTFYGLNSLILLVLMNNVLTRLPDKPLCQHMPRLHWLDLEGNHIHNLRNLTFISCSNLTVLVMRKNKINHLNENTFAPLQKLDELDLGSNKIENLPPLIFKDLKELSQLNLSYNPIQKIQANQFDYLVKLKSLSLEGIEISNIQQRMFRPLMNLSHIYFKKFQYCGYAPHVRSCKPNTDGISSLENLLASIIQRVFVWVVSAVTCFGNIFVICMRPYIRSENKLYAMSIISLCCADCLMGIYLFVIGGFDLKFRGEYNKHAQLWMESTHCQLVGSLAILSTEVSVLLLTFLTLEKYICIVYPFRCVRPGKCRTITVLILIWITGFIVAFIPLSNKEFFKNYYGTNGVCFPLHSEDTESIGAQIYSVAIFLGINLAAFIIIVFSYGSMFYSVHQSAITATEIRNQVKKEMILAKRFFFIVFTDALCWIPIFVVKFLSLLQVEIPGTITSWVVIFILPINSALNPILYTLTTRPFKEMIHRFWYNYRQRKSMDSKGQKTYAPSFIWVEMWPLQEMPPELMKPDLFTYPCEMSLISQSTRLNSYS
Briefly: cell-based or functional assay.

In assay [3] the target is T3, human LGR8 (human, UniProt Q8WXD0 1-754). Briefly: cell-based or functional assay.
T3 sequence (Q8WXD0 whole entry): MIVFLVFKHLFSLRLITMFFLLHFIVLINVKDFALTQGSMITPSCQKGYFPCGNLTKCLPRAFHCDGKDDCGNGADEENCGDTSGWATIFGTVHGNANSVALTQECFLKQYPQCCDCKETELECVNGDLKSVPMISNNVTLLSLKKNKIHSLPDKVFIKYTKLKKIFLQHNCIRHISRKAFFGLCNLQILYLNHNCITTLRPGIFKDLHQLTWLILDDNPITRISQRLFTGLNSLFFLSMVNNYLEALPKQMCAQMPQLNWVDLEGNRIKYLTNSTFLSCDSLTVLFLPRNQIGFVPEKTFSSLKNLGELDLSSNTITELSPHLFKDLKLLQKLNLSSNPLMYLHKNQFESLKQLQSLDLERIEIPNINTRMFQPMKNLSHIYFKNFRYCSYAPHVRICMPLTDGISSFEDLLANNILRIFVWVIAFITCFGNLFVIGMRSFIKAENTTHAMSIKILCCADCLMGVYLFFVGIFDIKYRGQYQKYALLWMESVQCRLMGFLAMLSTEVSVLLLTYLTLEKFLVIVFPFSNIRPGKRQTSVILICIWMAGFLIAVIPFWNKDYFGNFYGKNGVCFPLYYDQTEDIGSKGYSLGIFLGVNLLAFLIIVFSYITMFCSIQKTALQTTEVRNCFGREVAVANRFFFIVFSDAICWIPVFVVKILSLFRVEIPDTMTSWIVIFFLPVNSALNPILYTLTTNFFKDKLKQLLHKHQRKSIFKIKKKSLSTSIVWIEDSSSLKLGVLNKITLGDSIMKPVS
Assay [4] has as its target T3, human LGR8. Briefly: competition with 100 pM [125I]-INSL3, live COS-7 cells with human LGR8.
The target in assay [5] is T2, human LGR7. Briefly: competition with 100 pM [125I]-relaxin-3, live COS-7 cells with human LGR7.
The target of assay [6] is T1, human GPCR135. Briefly: competition with 100 pM [125I]-relaxin-3, COS-7 membranes with human GPCR135.
For assay [7], the target named is T4, human GPCR142 (human, UniProt Q8TDU9 1-374). Briefly: competition with 100 pM [125I]-relaxin-3, COS-7 membranes with human GPCR142.
T4 sequence (Q8TDU9 whole entry L329S, form in doubt): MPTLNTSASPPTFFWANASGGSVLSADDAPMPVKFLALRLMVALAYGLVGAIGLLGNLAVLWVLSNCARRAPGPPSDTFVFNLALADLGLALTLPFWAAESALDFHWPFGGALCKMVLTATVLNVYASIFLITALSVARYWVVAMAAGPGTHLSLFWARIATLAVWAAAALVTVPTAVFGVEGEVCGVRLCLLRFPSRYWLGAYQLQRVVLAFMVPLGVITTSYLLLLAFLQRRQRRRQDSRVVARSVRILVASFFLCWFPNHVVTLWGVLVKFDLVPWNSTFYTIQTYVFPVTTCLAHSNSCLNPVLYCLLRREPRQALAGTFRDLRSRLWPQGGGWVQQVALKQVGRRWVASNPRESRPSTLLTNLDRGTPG
Assay [8] concerns the target T1, human GPCR135. Briefly: cell-based or functional assay. This is another data set of the same source.
Assay [9] has as its target T4, human GPCR142. Briefly: cell-based or functional assay.
The target in assay [10] is T2, human LGR7. Briefly: cell-based or functional assay. This is another data set of the same source.
Assay [11] addresses T5, rat GPCR135 (rat, UniProt Q5Y987 29-469).
T5 construct: whole, on cells; also called rat recombinant GPCR135
Briefly: quantitative receptor autoradiography, displacement of 7 pM [125I]R3/I5 from rat brain sections; cortex; unit from paragraph 235.

Assay [12] has as its target T5, rat GPCR135. Briefly: quantitative receptor autoradiography, displacement of 7 pM [125I]R3/I5 from rat brain sections; olfactory bulb; unit from paragraph 235.
Assay [13] concerns the target T5, rat GPCR135. Briefly: quantitative receptor autoradiography, displacement of 7 pM [125I]R3/I5 from rat brain sections; superior colliculus; unit from paragraph 235.
Assay [14] deals with T4, human GPCR142. Briefly: cell-based or functional assay. The source holds these as a separate data set.
Assay [15] concerns the target T2, human LGR7. Briefly: radioligand competition, human LGR7 (Table 1 prints 724 nM).
The target of assay [16] is T1, human GPCR135. Briefly: discussion of the radioligand binding results of Examples 3-5.
Assay [17] has as its target T2, human LGR7. The assay is described as above.
For assay [18], the target named is T5, rat GPCR135. Briefly: competition with 100 pM [125I] human R3, COS-7 membranes with rat GPCR135.
The target in another assay is T6, rat LGR7 (rat, UniProt Q6R6I6 1-758).
T6 construct: whole, on cells; Membranes of COS-7 cells transiently expressing rat LGR7; also called rat recombinant LGR7
T6 sequence (looked up): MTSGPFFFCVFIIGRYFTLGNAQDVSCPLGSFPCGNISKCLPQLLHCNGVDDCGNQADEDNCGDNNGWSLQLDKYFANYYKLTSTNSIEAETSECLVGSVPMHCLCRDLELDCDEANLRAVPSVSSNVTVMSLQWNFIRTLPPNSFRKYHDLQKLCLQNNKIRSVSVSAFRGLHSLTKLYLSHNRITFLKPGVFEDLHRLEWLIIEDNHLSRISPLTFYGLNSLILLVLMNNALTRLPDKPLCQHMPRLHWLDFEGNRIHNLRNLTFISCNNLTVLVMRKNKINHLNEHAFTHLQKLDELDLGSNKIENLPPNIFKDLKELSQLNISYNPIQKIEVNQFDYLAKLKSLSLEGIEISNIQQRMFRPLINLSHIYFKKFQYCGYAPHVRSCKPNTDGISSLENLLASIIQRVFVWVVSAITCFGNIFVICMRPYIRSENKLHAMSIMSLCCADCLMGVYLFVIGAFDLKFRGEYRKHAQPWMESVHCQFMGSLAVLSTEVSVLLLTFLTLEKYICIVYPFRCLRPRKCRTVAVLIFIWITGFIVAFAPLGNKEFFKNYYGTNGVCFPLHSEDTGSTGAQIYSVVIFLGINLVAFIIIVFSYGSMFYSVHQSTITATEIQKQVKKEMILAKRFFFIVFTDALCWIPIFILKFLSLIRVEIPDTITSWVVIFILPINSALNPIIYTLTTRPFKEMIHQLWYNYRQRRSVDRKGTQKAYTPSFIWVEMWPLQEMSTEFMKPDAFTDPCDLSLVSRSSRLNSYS
Briefly: competition with 100 pM [125I] human relaxin-2, COS-7 membranes with rat LGR7.

Assay [19] has as its target T5, rat GPCR135. Briefly: ratio of IC50 values from radioligand competition on rat GPCR135 and rat LGR7.
In assay [20] the target is T3, human LGR8. Briefly: competition with 100 pM [125I]-INSL3, live COS-7 cells expressing human LGR8; ND denotes no activity was detected.
Assay [21] deals with T2, human LGR7. Briefly: radioligand competition, human LGR7 (Table 1 prints 12.9).
Assay [22] has as its target T3, human LGR8. Briefly: cell-based or functional assay. The source holds these as a separate data set.
In assay [23] the target is T3, human LGR8. Briefly: radioligand competition with [125I]-INSL3, human LGR8; lower end tied to R3/I3 by Table 1.

Ends that are not written are not given here.

B1: Relaxin-3/Relaxin-1 (R3/R1) chimeric polypeptide (ligand, human)
chain 1: RAAPYGVRLCGREFIRAVIFTCGGSRW
chain 2: RPYVALFEKCCLIGCTKRSLAKYC
modifications: disulfide (positions not given here)
notes: domain: A-chain; Two chains joined by disulfide bonds; Made in COS-7 cells with furin, FLAG tag removed with enterokinase
Consider B1, for which, in the assay with human GPCR135 [1], the “EC50, inhibition of forskolin stimulated β-galactosidase expression” value (from here on “EC50, inhibition”) amounted to 1.8 nM. Moreover, the “EC50, ligand stimulated β-galactosidase expression” value was 4.5 nM in the assay with human LGR7 [2] and greater than 1000 nM in the assay with human LGR8 [3]. Besides, the IC50 with human LGR8 [4] is greater than 1000 nM; with human LGR7 [5] it was 5.1 nM; in the assay with human GPCR135 [6] it was 2.9 nM; with human GPCR142 [7], 2.6 nM.

RAAPYGVRLCGREFIRAVIFTCGGSRW [synthetic human relaxin-3 B-chain]: the “inhibition of forskolin-stimulated β-galactosidase activity in SK-N-MC/β-gal cells, EC50” value in the assay with human GPCR135 [8] came to 88 nM; with human GPCR142 [9], 125 nM.

B2: human relaxin-3 (ligand)
chain 1: RAAPYGVRLCGREFIRAVIFTCGGSRW
chain 2: DVLAGLSSSCCKWGCSKSEISSLC
modifications: ends and bridges not checked; also: also used as 125I-labelled tracer
notes: domain: A-chain; Mature two-chain hormone; also called R3; INSL7
In the case of B2, the “stimulation of β-galactosidase activity in SK-N-MC/β-gal cells, EC50” value with human LGR7 [10] came to 1.4 nM. Besides, the IC50 in the assay with rat GPCR135 [11] worked out at 0.4 nM; with rat GPCR135 [12] it was 0.3 nM; with rat GPCR135 [13], 0.3 nM.

B3: Relaxin-3/INSL5 (R3/I5) chimeric polypeptide (ligand)
chain 1: RAAPYGVRLCGREFIRAVIFTCGGSRW
chain 2: DLQTLCCTDGCSMTDLSALC
modifications: disulfide (positions not given here); also: two chains joined by disulfide bonds, places not given here
notes: Two chains joined by disulfide bonds; FLAG tag removed with enterokinase; also called R3/I5 chimera; I5/R3
For B3, the figures for the “EC50, inhibition” value with human GPCR135 [1] and with human GPCR142 [14] were 0.45 nM and 0.91 nM, respectively. For the same molecule, the “EC50, ligand stimulated β-galactosidase expression” value with human LGR7 [2] was determined as 412 nM. The half-maximal inhibitory concentration (IC50) with human LGR7 [15] is roughly 500 nM; in the assay with rat GPCR135 [18], 0.5 nM; with rat LGR7, greater than 400 nM; with human LGR7 [5], 724 nM; with human GPCR135 [6], 0.68 nM; with human GPCR142 [7], 1.4 nM. Besides, the Kd in the assay with human GPCR135 [16] was roughly 0.5 nM; with human LGR7 [17] it was roughly 500 nM. Further, the “fold selective over rat LGR7” value in the assay with rat GPCR135 [19] was found to be 800 fold. Besides, the binding result with human LGR8 [20] was “no binding”.

B4: Relaxin-3/Relaxin-2 (R3/R2) chimeric polypeptide (ligand, human)
chain 1: RAAPYGVRLCGREFIRAVIFTCGGSRW
chain 2: QLYSALANKCCHVGCTKRSLARFC
modifications: disulfide (positions not given here); also: two chains joined by disulfide bonds, pairing not given here
notes: domain: A-chain; Two chains joined by disulfide bonds; FLAG tag removed
On to B4, for which the “EC50, inhibition” value with human GPCR135 [1] is 1.1 nM; with human GPCR142 [14] it was 1.4 nM. The “EC50, ligand stimulated β-galactosidase expression” value with human LGR7 [2] is 1.1 nM; with human LGR8 [3] it was 575 nM. Also, the IC50 came to 615 nM with human LGR8 [4], 1.5 nM with human LGR7 [5], 1.2 nM with human GPCR135 [6] and 1.8 nM with human GPCR142 [7].

B5: Relaxin-3/INSL6 (R3/I6) chimeric polypeptide (ligand, human)
chain 1: RAAPYGVRLCGREFIRAVIFTCGGSRW
chain 2: GYSEKCCLTGCTKEELSIAC
modifications: disulfide (positions not given here)
notes: as for B4
Consider B5, for which the “EC50, inhibition” value stood at 8.4 nM in the assay with human GPCR135 [1] and 11.2 nM in the assay with human GPCR142 [14]. The “EC50, ligand stimulated β-galactosidase expression” value with human LGR7 [2] stood at 13.7 nM. The IC50 with human LGR7 [21] amounted to 15 nM; with human LGR7 [5], 12.9 nM; with human GPCR135 [6], 9.5 nM; with human GPCR142 [7] it was 11.3 nM. For the same molecule, in the assay with human LGR8 [20], the binding result is listed as “no binding”.

B6: human INSL3 (ligand)
chain 1: PTPEMREKLCGHHFVRALVRVCGGPRWSTEA
chain 2: AAATNPARYCCLSGCTQQDLLTLCPY
modifications: ends and bridges not checked; also: also used as 125I-labelled tracer
As for B6, the “induction of β-galactosidase activity in SK-N-MC/β-gal cells, EC50” value with human LGR8 [22] came out at 0.16 nM.

B7: Relaxin-3/INSL3 (R3/I3) chimeric polypeptide (ligand, human)
chain 1: RAAPYGVRLCGREFIRAVIFTCGGSRW
chain 2: NPARYCCLSGCTQQDLLTLC
modifications: disulfide (positions not given here)
notes: as for B4
For the molecule B7, in the assay with human GPCR142 [14], the “EC50, inhibition” value stood at 2.9 nM. Moreover, the “EC50, ligand stimulated β-galactosidase expression” value came to 2.5 nM in the assay with human LGR7 [2] and 258 nM with human LGR8 [3]. The IC50 was 475 nM in the assay with human LGR8 [4], 2.3 nM with human LGR7 [5], 3.5 nM with human GPCR142 [7] and 500 nM with human LGR8 [23].

For the origin of these results see patent EP1789452B1 (Janssen Pharmaceutica NV, dated 2006).
